What was measured:
Assay in all cases: co-IP; anti-Flag M2 affinity gel on extracts of human HEK 293 cells transfected with mouse 3xFlag Cyclin A2 alleles; endogenous partners detected by Western blot; densitometry (ImageQuantTL) normalised to immunoprecipitated Cyclin A2, percent of WT; repeated 3 times
Conditions in all cases: partners not purified
[1] = target: T1, Cyclin A2 WT, C-terminally fused to 3 Flag tags (mouse, UniProt P51943 1-422)
T1 construct: Cyclin A2, mouse; cDNA obtained from NIH3T3 cells by RT-PCR; Same construct transfected into mouse NIH3T3 (assay a1) and human HEK 293 (assay a2); also called WT Cyclin A2 allele; Flag tagged WT Cyclin A2; source: NIH3T3 or HEK 293 cells, transfected, in cell extracts; not shown: 3xFlag, C-terminal, kept

[2] = target: T2, Cyclin A2 D171A, C-terminally fused to 3 Flag tags (mouse, UniProt P51943 1-422, D171A)
T2 construct: Cyclin A2, mouse; cDNA obtained from NIH3T3 cells by RT-PCR; source: NIH3T3 or HEK 293 cells, transfected, in cell extracts; not shown: 3xFlag, C-terminal, kept

[3] = target: T3, Cyclin A2 M200A, C-terminally fused to 3 Flag tags (mouse, UniProt P51943 1-422, M200A)
T3 construct: Cyclin A2, mouse; cDNA obtained from NIH3T3 cells by RT-PCR; source: NIH3T3 or HEK 293 cells, transfected, in cell extracts; not shown: 3xFlag, C-terminal, kept

[4] = target: T4, Cyclin A2 L204A, C-terminally fused to 3 Flag tags (mouse, UniProt P51943 1-422, L204A)
T4 construct: Cyclin A2, mouse; cDNA obtained from NIH3T3 cells by RT-PCR; source: NIH3T3 or HEK 293 cells, transfected, in cell extracts; not shown: 3xFlag, C-terminal, kept
T4 sequence (P51943 whole entry L204A, the tested form may be a part): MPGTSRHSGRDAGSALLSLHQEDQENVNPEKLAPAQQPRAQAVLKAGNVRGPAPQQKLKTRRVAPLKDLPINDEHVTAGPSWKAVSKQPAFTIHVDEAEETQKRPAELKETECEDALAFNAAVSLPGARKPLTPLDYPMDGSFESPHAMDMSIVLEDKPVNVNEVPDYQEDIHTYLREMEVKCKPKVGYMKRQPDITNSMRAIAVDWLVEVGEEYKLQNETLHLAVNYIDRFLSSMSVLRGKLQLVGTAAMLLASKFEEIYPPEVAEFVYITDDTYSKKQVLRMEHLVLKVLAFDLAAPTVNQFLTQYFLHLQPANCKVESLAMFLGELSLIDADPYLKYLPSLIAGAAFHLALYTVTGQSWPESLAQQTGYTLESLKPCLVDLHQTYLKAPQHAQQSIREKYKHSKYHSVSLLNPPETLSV

T3 sequence (P51943 whole entry M200A, the tested form may be a part): as the sequence (P51943 whole entry L204A, the tested form may be a part) above, with M200A, A204L counted along it
T2 sequence (P51943 whole entry D171A, the tested form may be a part): as the sequence (P51943 whole entry L204A, the tested form may be a part) above, with D171A, A204L counted along it
T1 sequence (P51943 whole entry, the tested form may be a part): as the sequence (P51943 whole entry L204A, the tested form may be a part) above, with A204L counted along it

percent co-precipitated relative to WT [1]: 100%
percent co-precipitated relative to WT [2]: 95%
percent co-precipitated relative to WT [3]: 57.4%
percent co-precipitated relative to WT [4]: 5.3%
B1: p107 (endogenous, HEK 293) (natural protein, human (endogenous in HEK 293), UniProt P28749 1-1068, looked up)
chain: MFEDKPHAEGAAVVAAAGEALQALCQELNLDEGSAAEALDDFTAIRGNYSLEGEVTHWLACSLYVACRKSIIPTVGKGIMEGNCVSLTRILRSAKLSLIQFFSKMKKWMDMSNLPQEFRERIERLERNFEVSTVIFKKYEPIFLDIFQNPYEEPPKLPRSRKQRRIPCSVKDLFNFCWTLFVYTKGNFRMIGDDLVNSYHLLLCCLDLIFANAIMCPNRQDLLNPSFKGLPSDFHTADFTASEEPPCIIAVLCELHDGLLVEAKGIKEHYFKPYISKLFDRKILKGECLLDLSSFTDNSKAVNKEYEEYVLTVGDFDERIFLGADAEEEIGTPRKFTRDTPLGKLTAQANVEYNLQQHFEKKRSFAPSTPLTGRRYLREKEAVITPVASATQSVSRLQSIVAGLKNAPSDQLINIFESCVRNPVENIMKILKGIGETFCQHYTQSTDEQPGSHIDFAVNRLKLAEILYYKILETVMVQETRRLHGMDMSVLLEQDIFHRSLMACCLEIVLFAYSSPRTFPWIIEVLNLQPFYFYKVIEVVIRSEEGLSRDMVKHLNSIEEQILESLAWSHDSALWEALQVSANKVPTCEEVIFPNNFETGNGGNVQGHLPLMPMSPLMHPRVKEVRTDSGSLRRDMQPLSPISVHERYSSPTAGSAKRRLFGEDPPKEMLMDKIITEGTKLKIAPSSSITAENVSILPGQTLLTMATAPVTGTTGHKVTIPLHGVANDAGEITLIPLSMNTNQESKVKSPVSLTAHSLIGASPKQTNLTKAQEVHSTGINRPKRTGSLALFYRKVYHLASVRLRDLCLKLDVSNELRRKIWTCFEFTLVHCPDLMKDRHLDQLLLCAFYIMAKVTKEERTFQEIMKSYRNQPQANSHVYRSVLLKSIPREVVAYNKNINDDFEMIDCDLEDATKTPDCSSGPVKEERGDLIKFYNTIYVGRVKSFALKYDLANQDHMMDAPPLSPFPHIKQQPGSPRRISQQHSIYISPHKNGSGLTPRSALLYKFNGSPSKSLKDINNMIRQGEQRTKKRVIAIDSDAESPAKRVCQENDDVLLKRLQDVVSERANH
notes: p107, endogenous protein of human HEK 293 cells, detected by Western blot; source: endogenous, HEK 293 cell extract

— publication PMC3145769, “Cyclin A2 Mutagenesis Analysis: A New Insight into CDK Activation and Cellular Localization Requirements” (PLoS ONE, 2011)
